Assays:
[1] = target: Butyrophilin Subfamily 2 Member A1 (BTN2A1) (human) (UniProt Q7KYR7); test: cell-based or functional assay
[2] = target: BTN2A1; BTN3A1; BTN3A2/A3 peptide on (human); test: luciferase killing assay, 20 h; T cells + three luciferase tumour cell lines (10:1) + purified GAB + 30 µM pamidronate; fusion: anti-CD3 scFv (GAB)
[3] = target: BTN3A1/A2/A3; test: cell-based or functional assay
[4] = target: BTN2A1; BTN3A1; BTN3A2/A3 peptide on (human); test: luciferase killing assay, 20 h; T cells + luciferase target cells (5:1) + purified GAB + 30 µM pamidronate; fusion: anti-CD3 scFv (GAB)

Sequence of UniProt Q7KYR7 (Q7KYR7 29-527): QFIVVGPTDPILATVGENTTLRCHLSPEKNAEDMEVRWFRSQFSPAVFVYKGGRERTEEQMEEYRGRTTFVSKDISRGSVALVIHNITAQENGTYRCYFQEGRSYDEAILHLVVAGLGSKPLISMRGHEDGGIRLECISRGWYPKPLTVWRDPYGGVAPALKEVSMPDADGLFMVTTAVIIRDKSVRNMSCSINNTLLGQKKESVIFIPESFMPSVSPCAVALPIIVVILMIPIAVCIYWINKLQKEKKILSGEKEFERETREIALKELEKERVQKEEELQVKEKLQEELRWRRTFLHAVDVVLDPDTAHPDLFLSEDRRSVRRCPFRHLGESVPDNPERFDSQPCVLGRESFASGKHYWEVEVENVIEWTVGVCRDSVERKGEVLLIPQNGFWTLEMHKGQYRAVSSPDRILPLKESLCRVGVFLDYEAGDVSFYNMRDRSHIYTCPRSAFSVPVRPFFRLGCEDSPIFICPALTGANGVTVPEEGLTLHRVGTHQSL

B1: Vγ9Vδ2TCR MNP2γE22W (TCR, part only; not given: rest of gamma chain, delta chain, part only)
TCR gamma, part: AGHLEQPQISSTKTLSKTARLWCVVSGITISATSVYWYRERPGEVIQFLVSISYDGTVRKESGIPSGKFEVDRIPETSTSTLTIHNVEKQDIATYYCALWE
In the case of B1, the killing of luciferase transduced RPMI8226 cells by TCR-transduced αβT cells (MNP2 wt killed around 60%) [1] is reported as greater than 90%.

B2: GAB-AJ8sγT83I (TCR, part only; not given: CDR3 delta, constant parts, anti-CD3 scFv, part only)
TCR gamma, part: AGHLEQPQISSTKTLSKTARLECVVSGITISATSVYWYRERPGEVIQFLVSISYDGTVRKESGIPSGKFEVDYIPETSTSTLIIHNVEKQDIATYYCALWE
TCR delta, part: AIELVPEHQTVPVSIGVPATLRCSMKGEAIGNYYINWYRKTQGNTMTFIYREKDIYGPGFKDNFQGDIDIAKNLAVLKILAPSERDEGSYYCACDT
B2 was tested, and the IFNγ production relative to GAB-AJ8s (GAB expression media, MZ1851RC, 30 µM pamidronate) [1] was 8.8 fold.

B3: GAB-AJ8s-Vγ9 mutation T83L (TCR, part only; not given: CDR3 delta, constant parts, anti-CD3 scFv, part only)
TCR gamma, part: AGHLEQPQISSTKTLSKTARLECVVSGITISATSVYWYRERPGEVIQFLVSISYDGTVRKESGIPSGKFEVDYIPETSTSTLLIHNVEKQDIATYYCALWE
TCR delta, part: AIELVPEHQTVPVSIGVPATLRCSMKGEAIGNYYINWYRKTQGNTMTFIYREKDIYGPGFKDNFQGDIDIAKNLAVLKILAPSERDEGSYYCACDT
B3 showed an IFNγ production relative to GAB-AJ8s (GAB expression media, MZ1851RC, 30 µM pamidronate) [1] of 2 fold.

B4: GAB-AJ8sγE22W (TCR, part only; not given: CDR3 delta, constant parts, anti-CD3 scFv, part only)
TCR gamma, part: AGHLEQPQISSTKTLSKTARLWCVVSGITISATSVYWYRERPGEVIQFLVSISYDGTVRKESGIPSGKFEVDYIPETSTSTLTIHNVEKQDIATYYCALWE
TCR delta, part: AIELVPEHQTVPVSIGVPATLRCSMKGEAIGNYYINWYRKTQGNTMTFIYREKDIYGPGFKDNFQGDIDIAKNLAVLKILAPSERDEGSYYCACDT
B4 showed an IFNγ release after 20 hours of coculture, potency against GAB-AJ8s [1] of 10 fold, an IFNγ release relative to GAB-AJ8s (GAB expression media, T cells with MZ1851RC or SCC9, 30 µM pamidronate) [1] of 5.6 fold and a T cell mediated tumor cell killing (luciferase), activity against GAB-AJ8s [1] greater than 10 fold. For the same binder, the fold difference in EC50 of tumor cell killing between GAB-AJ8s and GAB-AJ8γE22W [1] was 15.5 fold and the mean fold difference in EC50 of GAB against GAB-AJ8s [2] was 15.5 fold.

B5: GAB-AJ8sγE22WδG31V (TCR, part only; not given: CDR3 delta, constant parts, anti-CD3 scFv, part only)
TCR gamma, part: AGHLEQPQISSTKTLSKTARLWCVVSGITISATSVYWYRERPGEVIQFLVSISYDGTVRKESGIPSGKFEVDYIPETSTSTLTIHNVEKQDIATYYCALWE
TCR delta, part: AIELVPEHQTVPVSIGVPATLRCSMKGEAIVNYYINWYRKTQGNTMTFIYREKDIYGPGFKDNFQGDIDIAKNLAVLKILAPSERDEGSYYCACDT
B5 gave an IFNγ release, potency against the single mutants (combined Vγ9 and Vδ2 mutations; RPMI8226 and SCC9) [3] of 10 fold, a T cell mediated killing of RPMI8226 and SCC9, potency against GAB-AJ8s [3] greater than 100 fold and a T cell mediated killing of RPMI8226 and SCC9, potency against the single Vγ9 or Vδ2 mutants [3] greater than 10 fold. The IFNγ release, potency against the single mutants (combined Vγ9 and Vδ2 mutations; RPMI8226 and SCC9) [1] was 10 fold, the T cell mediated killing of RPMI8226 and SCC9, potency against GAB-AJ8s [1] was greater than 100 fold and the T cell mediated killing of RPMI8226 and SCC9, potency against the single Vγ9 or Vδ2 mutants [1] was greater than 10 fold.

B6: GAB-AJ8s-Vγ9 mutation T81I (TCR, part only; not given: CDR3 delta, constant parts, anti-CD3 scFv, part only)
TCR gamma, part: AGHLEQPQISSTKTLSKTARLECVVSGITISATSVYWYRERPGEVIQFLVSISYDGTVRKESGIPSGKFEVDYIPETSTSILTIHNVEKQDIATYYCALWE
TCR delta, part: AIELVPEHQTVPVSIGVPATLRCSMKGEAIGNYYINWYRKTQGNTMTFIYREKDIYGPGFKDNFQGDIDIAKNLAVLKILAPSERDEGSYYCACDT
Work on B6 yielded an IFNγ production relative to GAB-AJ8s (GAB expression media, MZ1851RC, 30 µM pamidronate) [1] of 2 fold.

B7: GAB-AJ8sδK53S (TCR, part only; not given: CDR3 delta, constant parts, anti-CD3 scFv, part only)
TCR gamma, part: AGHLEQPQISSTKTLSKTARLECVVSGITISATSVYWYRERPGEVIQFLVSISYDGTVRKESGIPSGKFEVDYIPETSTSTLTIHNVEKQDIATYYCALWE
TCR delta, part: AIELVPEHQTVPVSIGVPATLRCSMKGEAIGNYYINWYRKTQGNTMTFIYRESDIYGPGFKDNFQGDIDIAKNLAVLKILAPSERDEGSYYCACDT
Work on B7 yielded an IFNγ release after 20 hours of coculture, potency against GAB-AJ8s [3] of 10 fold.

B8: GAB-AJ8sγT81H (TCR, part only; not given: CDR3 delta, constant parts, anti-CD3 scFv, part only)
TCR gamma, part: AGHLEQPQISSTKTLSKTARLWCVVSGITISATSVYWYRERPGEVIQFLVSISYDGTVRKESGIPSGKFEVDYIPETSTSTLTIHNVEKQDIATYYCALWE
TCR delta, part: AIELVPEHQTVPVSIGVPATLRCSMKGEAIGNYYINWYRKTQGNTMTFIYREKDIYGPGFKDNFQGDIDIAKNLAVLKILAPSERDEGSYYCACDT
With B8 the IFNγ production relative to GAB-AJ8s (GAB expression media, MZ1851RC, 30 µM pamidronate) [1] was 4.2 fold, the fold difference in EC50 of tumor cell killing against GAB-AJ8s [1] was 2.4 fold and the mean fold difference in EC50 of GAB against GAB-AJ8s [4] was 2.4 fold.

B9: GAB-AJ8sγE22WδK53S (TCR, part only; not given: CDR3 delta, constant parts, anti-CD3 scFv, part only)
TCR gamma, part: AGHLEQPQISSTKTLSKTARLWCVVSGITISATSVYWYRERPGEVIQFLVSISYDGTVRKESGIPSGKFEVDYIPETSTSTLTIHNVEKQDIATYYCALWE
TCR delta, part: AIELVPEHQTVPVSIGVPATLRCSMKGEAIGNYYINWYRKTQGNTMTFIYRESDIYGPGFKDNFQGDIDIAKNLAVLKILAPSERDEGSYYCACDT
Binder B9 has an IFNγ release, potency against the single mutants (combined Vγ9 and Vδ2 mutations; RPMI8226 and SCC9) [3] of 10 fold, a T cell mediated killing of RPMI8226 and SCC9, potency against GAB-AJ8s [3] greater than 100 fold and a T cell mediated killing of RPMI8226 and SCC9, potency against the single Vγ9 or Vδ2 mutants [3] greater than 10 fold. It also gave an IFNγ release, potency against the single mutants (combined Vγ9 and Vδ2 mutations; RPMI8226 and SCC9) [1] of 10 fold, a T cell mediated killing of RPMI8226 and SCC9, potency against GAB-AJ8s [1] greater than 100 fold and a T cell mediated killing of RPMI8226 and SCC9, potency against the single Vγ9 or Vδ2 mutants [1] greater than 10 fold.

B10: GAB-AJ8sγT81W (TCR, part only; not given: CDR3 delta, constant parts, anti-CD3 scFv, part only)
TCR gamma, part: AGHLEQPQISSTKTLSKTARLECVVSGITISATSVYWYRERPGEVIQFLVSISYDGTVRKESGIPSGKFEVDYIPETSTSWLTIHNVEKQDIATYYCALWE
TCR delta, part: AIELVPEHQTVPVSIGVPATLRCSMKGEAIGNYYINWYRKTQGNTMTFIYREKDIYGPGFKDNFQGDIDIAKNLAVLKILAPSERDEGSYYCACDT
B10 showed an IFNγ production relative to GAB-AJ8s (GAB expression media, MZ1851RC, 30 µM pamidronate) [1] of 2 fold, a fold difference in EC50 of tumor cell killing against GAB-AJ8s [1] of 2.8 fold and a mean fold difference in EC50 of GAB against GAB-AJ8s [4] of 2.8 fold.

B11: GAB-AJ8sδG31V (TCR, part only; not given: CDR3 delta, constant parts, anti-CD3 scFv, part only)
TCR gamma, part: AGHLEQPQISSTKTLSKTARLECVVSGITISATSVYWYRERPGEVIQFLVSISYDGTVRKESGIPSGKFEVDYIPETSTSTLTIHNVEKQDIATYYCALWE
TCR delta, part: AIELVPEHQTVPVSIGVPATLRCSMKGEAIVNYYINWYRKTQGNTMTFIYREKDIYGPGFKDNFQGDIDIAKNLAVLKILAPSERDEGSYYCACDT
B11 showed an IFNγ release after 20 hours of coculture, potency against GAB-AJ8s [3] of 10 fold.
